{
  "source": "IntAct's records for PubMed 25678664",
  "parents": {"B1": {"name": "Claudin-19 (Mus musculus), Q9ET38 (parent)", "chain": "MANSGLQLLGYFLALGGWVGIIASTALPQWKQSSYAGDAIITAVGLYEGLWMSCASQSTGQVQCKLYDSLLALDGHIQSARALMVVAVLLGFVAMVLSVVGMKCTRVGDSNPTAKSRVAISGGALFLLAGLCTLTAVSWYATLVTQEFFNPSTPVNARYEFGPALFVGWASAGLAMLGGSFLCCTCPEPERANSIPQPYRSGPSTAAREPVVKLPASVKGPLGV"}},
  "data": [
    {"variants_of": "B1", "conditions": "with eltb_clopf cpe", "values": [
      {"variant": "MANSGLQLLGYFLALGGWVGIIASTALPQWKQSSYAGDSIITAVGLYEGLWMSCASQSTGQVQCKLYDSLLALDGHIQSARALMVVAVLLGFVAMVLSVVGMKCTRVGDSNPTAKSRVAISGGALFLLAGLCTLTAVSWYATLVTQEFFNPSTPVNARYEFGPALFVGWASAGLAMLGGSFLCCTCPEPERANSIPQPYRSGPSTAAREPVVKLPASVKGPLGV", "note": "[A39S]", "effect of a mutation on the interaction": "decreasing interaction strength"},
      {"variant": "MANSGLQLLGYFLALGGWVGIIASTALPQWKQSSYAGDRIITAVGLYEGLWMSCASQSTGQVQCKLYDSLLALDGHIQSARALMVVAVLLGFVAMVLSVVGMKCTRVGDSNPTAKSRVAISGGALFLLAGLCTLTAVSWYATLVTQEFFNPSTPVNARYEFGPALFVGWASAGLAMLGGSFLCCTCPEPERANSIPQPYRSGPSTAAREPVVKLPASVKGPLGV", "note": "[A39R]", "effect of a mutation on the interaction": "decreasing interaction strength"},
      {"variant": "MANSGLQLLGYFLALGGWVGIIASTALPQWKQSSYAGDAAITAVGLYEGLWMSCASQSTGQVQCKLYDSLLALDGHIQSARALMVVAVLLGFVAMVLSVVGMKCTRVGDSNPTAKSRVAISGGALFLLAGLCTLTAVSWYATLVTQEFFNPSTPVNARYEFGPALFVGWASAGLAMLGGSFLCCTCPEPERANSIPQPYRSGPSTAAREPVVKLPASVKGPLGV", "note": "[I40A]", "effect of a mutation on the interaction": "decreasing interaction strength"},
      {"variant": "MANSGLQLLGYFLALGGWVGIIASTALPQWKQSSYAGDALITAVGLYEGLWMSCASQSTGQVQCKLYDSLLALDGHIQSARALMVVAVLLGFVAMVLSVVGMKCTRVGDSNPTAKSRVAISGGALFLLAGLCTLTAVSWYATLVTQEFFNPSTPVNARYEFGPALFVGWASAGLAMLGGSFLCCTCPEPERANSIPQPYRSGPSTAAREPVVKLPASVKGPLGV", "note": "[I40L]", "effect of a mutation on the interaction": "decreasing interaction strength"},
      {"variant": "MANSGLQLLGYFLALGGWVGIIASTALPQWKQSSYAGDASITAVGLYEGLWMSCASQSTGQVQCKLYDSLLALDGHIQSARALMVVAVLLGFVAMVLSVVGMKCTRVGDSNPTAKSRVAISGGALFLLAGLCTLTAVSWYATLVTQEFFNPSTPVNARYEFGPALFVGWASAGLAMLGGSFLCCTCPEPERANSIPQPYRSGPSTAAREPVVKLPASVKGPLGV", "note": "[I40S]", "effect of a mutation on the interaction": "decreasing interaction strength"},
      {"variant": "MANSGLQLLGYFLALGGWVGIIASTALPQWKQSSYAGDAVITAVGLYEGLWMSCASQSTGQVQCKLYDSLLALDGHIQSARALMVVAVLLGFVAMVLSVVGMKCTRVGDSNPTAKSRVAISGGALFLLAGLCTLTAVSWYATLVTQEFFNPSTPVNARYEFGPALFVGWASAGLAMLGGSFLCCTCPEPERANSIPQPYRSGPSTAAREPVVKLPASVKGPLGV", "note": "[I40V]", "effect of a mutation on the interaction": "decreasing interaction strength"},
      {"variant": "MANSGLQLLGYFLALGGWVGIIASTALPQWKQSSYAGDAIITAVGLYEGLWMSCASQSTGQVQCKLYDSLLALDGHIQSARALMVVAVLLGFVAMVLSVVGMKCTRVGDSNPTAKSRVAISGGALFLLAGLCTLTAVSWYATLVTQEFFNPDTPVNARYEFGPALFVGWASAGLAMLGGSFLCCTCPEPERANSIPQPYRSGPSTAAREPVVKLPASVKGPLGV", "note": "[S152D]", "effect of a mutation on the interaction": "decreasing interaction strength"},
      {"variant": "MANSGLQLLGYFLALGGWVGIIASTALPQWKQSSYAGDAIVTAVGLYEGLWMSCASQSTGQVQCKLYDSLLALDGHIQSARALMVVAVLLGFVAMVLSVVGMKCTRVGDSNPTAKSRVAISGGALFLLAGLCTLTAVSWYATLVTQEFFNPSTPVNARYEFGPALFVGWASAGLAMLGGSFLCCTCPEPERANSIPQPYRSGPSTAAREPVVKLPASVKGPLGV", "note": "[I41V]", "effect of a mutation on the interaction": "decreasing interaction strength"},
      {"variant": "MANSGLQLLGYFLALGGWVGIIASTALPQWKQSSYAGDAIATAVGLYEGLWMSCASQSTGQVQCKLYDSLLALDGHIQSARALMVVAVLLGFVAMVLSVVGMKCTRVGDSNPTAKSRVAISGGALFLLAGLCTLTAVSWYATLVTQEFFNPSTPVNARYEFGPALFVGWASAGLAMLGGSFLCCTCPEPERANSIPQPYRSGPSTAAREPVVKLPASVKGPLGV", "note": "[I41A]", "effect of a mutation on the interaction": "decreasing interaction strength"},
      {"variant": "MANSGLQLLGYFLALGGWVGIIASTALPQWKQSSYAGDAISTAVGLYEGLWMSCASQSTGQVQCKLYDSLLALDGHIQSARALMVVAVLLGFVAMVLSVVGMKCTRVGDSNPTAKSRVAISGGALFLLAGLCTLTAVSWYATLVTQEFFNPSTPVNARYEFGPALFVGWASAGLAMLGGSFLCCTCPEPERANSIPQPYRSGPSTAAREPVVKLPASVKGPLGV", "note": "[I41S]", "effect of a mutation on the interaction": "decreasing interaction strength"},
      {"variant": "MANSGLQLLGYFLALGGWVGIIASTALPQWKQSSYAGDAIITAVGLYEGLWMSCASQSTGQVQCKLYDSLLALDGHIQSARALMVVAVLLGFVAMVLSVVGMKCTRVGDSNPTAKSRVAISGGALFLLAGLCTLTAVSWYATLVTQEFFNPSTPVGARYEFGPALFVGWASAGLAMLGGSFLCCTCPEPERANSIPQPYRSGPSTAAREPVVKLPASVKGPLGV", "note": "[N156G]", "effect of a mutation on the interaction": "decreasing interaction strength"},
      {"variant": "MANSGLQLLGYFLALGGWVGIIASTALPQWKQSSSAGDAIITAVGLYEGLWMSCASQSTGQVQCKLYDSLLALDGHIQSARALMVVAVLLGFVAMVLSVVGMKCTRVGDSNPTAKSRVAISGGALFLLAGLCTLTAVSWYATLVTQEFFNPSTPVNARYEFGPALFVGWASAGLAMLGGSFLCCTCPEPERANSIPQPYRSGPSTAAREPVVKLPASVKGPLGV", "note": "[Y35S]", "effect of a mutation on the interaction": "decreasing interaction strength"},
      {"variant": "MANSGLQLLGYFLALGGWVGIIASTALPQWKQSSYAGDAIITAVGLYEGLWMSCASQSTGQVQCKLYDSLLALDGHIQSARALMVVAVLLGFVAMVLSVVGMKCTRVGDSNPTAKSRVAISGGALFLLAGLCTLTAVSWYATLVTQEFFNPSTAVNARYEFGPALFVGWASAGLAMLGGSFLCCTCPEPERANSIPQPYRSGPSTAAREPVVKLPASVKGPLGV", "note": "[P154A]", "effect of a mutation on the interaction": "decreasing interaction strength"},
      {"variant": "MANSGLQLLGYFLALGGWVGIIASTALPQWKQSSYAGDAIITAVGLYEGLWMSCASQSTGQVQCKLYDSLLALDGHIQSARALMVVAVLLGFVAMVLSVVGMKCTRVGDSNPTAKSRVAISGGALFLLAGLCTLTAVSWYATLVTQEFFNPSTDVNARYEFGPALFVGWASAGLAMLGGSFLCCTCPEPERANSIPQPYRSGPSTAAREPVVKLPASVKGPLGV", "note": "[P154D]", "effect of a mutation on the interaction": "decreasing interaction strength"},
      {"variant": "MANSGLQLLGYFLALGGWVGIIASTALPQWKQSSYAGDAIITAVGLYEGLWMSCASQSTGQVQCKLYDSLLALDGHIQSARALMVVAVLLGFVAMVLSVVGMKCTRVGDSNPTAKSRVAISGGALFLLAGLCTLTAVSWYATLVTQEFFDPSTPVNARYEFGPALFVGWASAGLAMLGGSFLCCTCPEPERANSIPQPYRSGPSTAAREPVVKLPASVKGPLGV", "note": "[N150D]", "effect of a mutation on the interaction": "decreasing interaction strength"},
      {"variant": "MANSGLQLLGYFLALGGWVGIIASTALPQWKQSSYAGDAIITAVGLYEGLWMSCASQSTGQVQCKLYDSLLALDGHIQSARALMVVAVLLGFVAMVLSVVGMKCTRVGDSNPTAKSRVAISGGALFLLAGLCTLTAVSWYATLVTQEFFKPSTPVNARYEFGPALFVGWASAGLAMLGGSFLCCTCPEPERANSIPQPYRSGPSTAAREPVVKLPASVKGPLGV", "note": "[N150K]", "effect of a mutation on the interaction": "decreasing interaction strength"},
      {"variant": "MANSGLQLLGYFLALGGWVGIIASTALPQWKQSSYAGDAIITAVGLYEGLWMSCASQSTGQVQCKLYDSLLALDGHIQSARALMVVAVLLGFVAMVLSVVGMKCTRVGDSNPTAKSRVAISGGALFLLAGLCTLTAVSWYATLVTQEFFSPSTPVNARYEFGPALFVGWASAGLAMLGGSFLCCTCPEPERANSIPQPYRSGPSTAAREPVVKLPASVKGPLGV", "note": "[N150S]", "effect of a mutation on the interaction": "decreasing interaction strength"},
      {"variant": "MANSGLQLLGYFLALGGWVGIIASTALPQWKQSSYAGDAIITAVGLYEGLWMSCASQSTGQVQCKLYDSLLALDGHIQSARALMVVAVLLGFVAMVLSVVGMKCTRVGDSNPTAKSRVAISGGALFLLAGLCTLTAVSWYATLVTQEFFQPSTPVNARYEFGPALFVGWASAGLAMLGGSFLCCTCPEPERANSIPQPYRSGPSTAAREPVVKLPASVKGPLGV", "note": "[N150Q]", "effect of a mutation on the interaction": "decreasing interaction strength"},
      {"variant": "MANSGLQLLGYFLALGGWVGIIASTALPQWKQSSYAGDAIITAVGLYEGLWMSCASQSTGQVQCKLYDSLLALDGHIQSARALMVVAVLLGFVAMVLSVVGMKCTRVGDSNPTAKSRVAISGGALFLLAGLCTLTAVSWYATLVTQEFFAPSTPVNARYEFGPALFVGWASAGLAMLGGSFLCCTCPEPERANSIPQPYRSGPSTAAREPVVKLPASVKGPLGV", "note": "[N150A]", "effect of a mutation on the interaction": "decreasing interaction strength"},
      {"variant": "MANSGLQLLGYFLALGGWVGIIASTALPQWKQSSYAGDAIITAVGLYEGLWMSCASQSTGQVQCKLYDSLLALDGHIQSARALMVVAVLLGFVAMVLSVVGMKCTRVGDSNPTAKSRVAISGGALFLLAGLCTLTAVSWYATLVTQEFFLPSTPVNARYEFGPALFVGWASAGLAMLGGSFLCCTCPEPERANSIPQPYRSGPSTAAREPVVKLPASVKGPLGV", "note": "[N150L]", "effect of a mutation on the interaction": "decreasing interaction strength"},
      {"variant": "MANSGLQLLGYFLALGGWVGIIASTALPQWKQSSYAGDAIITAVGLYEGLWMSCASQSTGQVQCKLYDSLLALDGHIQSARALMVVAVLLGFVAMVLSVVGMKCTRVGDSNPTAKSRVAISGGALFLLAGLCTLTAVSWYATLVTQEFFNASTPVNARYEFGPALFVGWASAGLAMLGGSFLCCTCPEPERANSIPQPYRSGPSTAAREPVVKLPASVKGPLGV", "note": "[P151A]", "effect of a mutation on the interaction": "decreasing interaction strength"},
      {"variant": "MANSGLQLLGYFLALGGWVGIIASTALPQWKQSSYAGDAIITAVGLYEGLWMSCASQSTGQVQCKLYDSLLALDGHIQSARALMVVAVLLGFVAMVLSVVGMKCTRVGDSNPTAKSRVAISGGALFLLAGLCTLTAVSWYATLVTQEFFNGSTPVNARYEFGPALFVGWASAGLAMLGGSFLCCTCPEPERANSIPQPYRSGPSTAAREPVVKLPASVKGPLGV", "note": "[P151G]", "effect of a mutation on the interaction": "decreasing interaction strength"},
      {"variant": "MANSGLQLLGYFLALGGWVGIIASTALPQWKQSSYAGDAIITAVGLYEGLWMSCASQSTGQVQCKLYDSLLALDGHIQSARALMVVAVLLGFVAMVLSVVGMKCTRVGDSNPTAKSRVAISGGALFLLAGLCTLTAVSWYATLVTQEFFNPSYPVNARYEFGPALFVGWASAGLAMLGGSFLCCTCPEPERANSIPQPYRSGPSTAAREPVVKLPASVKGPLGV", "note": "[T153Y]", "effect of a mutation on the interaction": "decreasing interaction strength"},
      {"variant": "MANSGLQLLGYFLALGGWVGIIASTALPQWKQSSYAGDAIITAVGLYEGLWMSCASQSTGQVQCKLYDSLLALDGHIQSARALMVVAVLLGFVAMVLSVVGMKCTRVGDSNPTAKSRVAISGGALFLLAGLCTLTAVSWYATLVTQEFFNPSTPVNARFEFGPALFVGWASAGLAMLGGSFLCCTCPEPERANSIPQPYRSGPSTAAREPVVKLPASVKGPLGV", "note": "[Y159F]", "effect of a mutation on the interaction": "decreasing interaction strength"},
      {"variant": "MANSGLQLLGYFLALGGWVGIIASTALPQWKQSSYAGDAIITAVGLYEGLWMSCASQSTGQVQCKLYDSLLALDGHIQSARALMVVAVLLGFVAMVLSVVGMKCTRVGDSNPTAKSRVAISGGALFLLAGLCTLTAVSWYATLVTQEFFNPSTPVNARSEFGPALFVGWASAGLAMLGGSFLCCTCPEPERANSIPQPYRSGPSTAAREPVVKLPASVKGPLGV", "note": "[Y159S]", "effect of a mutation on the interaction": "decreasing interaction strength"}
    ]}
  ]
}
